The values that follow come from the nanobody polyreactivity screen of Harvey et al. (2022).

The series can be described thus: yeast display, Sf9 membrane polyspecificity reagent, FACS + sequencing; frameworks hold sequencing errors. An outline of the steps: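 Nanobodies came from a synthetic yeast display library in Saccharomyces cerevisiae BJ5465, induced with galactose for 36–48 hours and stained for 1 hour at 4 °C with 10% biotinylated, detergent-solubilized Sf9 membrane reagent. Cells were enriched on streptavidin microbeads and then FACS-sorted, with low and high (top ~1%) gates set on anti-HA fluorescence for expression and streptavidin fluorescence for reagent binding. Each polyreactivity label reflects the gate a clone came from. Genes were amplified by colony PCR, sequenced by MiSeq 2 × 250 and filtered by CDR length.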
Turning to “QVQRVESGGGLVQAGGSLRLSCAASGSTLRYYAMGWYRQAPGKERELVAGIRYRGGSTSYADSVKGRFTISRDNAKNTVYLQMNSLKPEDTAVYYCATGIYRARTSSFRMGYWGQGTQVTVSS”, the “polyreactivity (PSR sort gate)” value is given as “low polyreactivity”.

For the sequence “QVQRVESGGGLVQAGGSLRLSCAASGTIFYHNAMGWYRQAPGIERELVAAITGSGGSTYYADSVKGRFTISRDNAKNTVYLQMNSLKPEDTAVYYCAADGYTKWRISWGYDYWGQGTQVTVCS”, the “polyreactivity (PSR sort gate)” value is listed as “low polyreactivity”.

Take “QVQRVESGGGLVQAGGSLRLSCAGCGRIFHYYAMGWYRQAPGKEMELVAAITSSGGSTYYADSVKGRFTISRDHPKNTVYLQMNSLKPEDTAVYYCAAGLIVGRFLRYDYWGQGTQVTVSS”: the “polyreactivity (PSR sort gate)” value is reported as “high polyreactivity”.

As for “QVQRVESGGGLVQAGGSLRLSSAASGSTFQEYAMGWYSQAPGKERELVASIRWSGGRTYYADSVKGRFTISRDQAKNTVELQMKSLKPEDTAVYYCNKDYYITLHESDGNGGEMDYWGQGTQVTVSS”, the “polyreactivity (PSR sort gate)” value is “low polyreactivity”.

For “QVQRVESGGGLVQAGVSLRLSCAASGITFVPYAMGWYRQAPGKERELVAAISSSGGSTYYADSVKGRFTISRDNAKNTVYLQMNSLKPEDTAVYFCNVPTHSYIGMDYWGQGTQVTVSS”, the “polyreactivity (PSR sort gate)” value was “low polyreactivity”.

For the sequence “QVQRVESGGGLVQEAGSLRLSCAASGSILGINVMGWYRHDHGKQRDLVAAISRSGGTTYYADSVKGRFTISRDNGKNTVYLQMNSLKPEDTAVYSCAVYNRPYKEYGYNYCGQGTQVTVSS”, the “polyreactivity (PSR sort gate)” value is “high polyreactivity”.

As to “QVQRVESGRGLVQAGGRLRLSCAASGFIFDRNVMGLYRQAPGNERELVAAISSSGGSTYYADSVKGRFTISRDNAKNTVYLQMNSLKPEDTAVYYCNRLAYRNMDYWGQGTQVTVSS”, the “polyreactivity (PSR sort gate)” value is reported as “high polyreactivity”.

Regarding “QVQRVESGRGLVQAGGSLRLRCAASGNIFPWSAMGWSRQAPGKERELVAAITSGGGSTYYGDSVKGRFTISRDNAKNTVYLQMNRLKPEDTAVYYCNAESAFVSYYSEDYDYWGQGTQVTVSS”, the “polyreactivity (PSR sort gate)” value is listed as “low polyreactivity”.

With “QVQRVESGVGLVQAGGSLRLRCAASGSIFQSYAMGWYRHAPGKERELVAAITERGGSTYYADSVKGRFTISRDNAKNTVYLQMNSLKPEDTAVYYCAAKAVGLGKSWRGDDYWGQRTQVTVSS”, the “polyreactivity (PSR sort gate)” value is reported as “low polyreactivity”.

As for “QVQRVESRGGLVQAGGSLRLSCAASGSTFAVYALGWYRQAPGKERELVAAISQSGGSTNYADSVKGRFTISRDNAKNTVYLQMNSLKPEDTAVYYCNVDVSRSWAQPYTYDYWGQGTQVTVSS”, the “polyreactivity (PSR sort gate)” value is listed as “low polyreactivity”.

Consider “QVQRVESWGGLVQAGGSLRLSCAASGFTFSDNAMGWYRQAPGKERELVAAISRRGGSTYYADSVKGRFTISRDNAKNTVYLQMNSLKPEVTAVYYCAAVRASSKVHTRTYDYWGQGTQVTVSS”, for which the “polyreactivity (PSR sort gate)” value is reported as “high polyreactivity”.

As for “QVQRVETGGGLVQAGGSLRLSSAASGSTLPGNTMGWYRQAPGKERELVAAISKSGGTTYYADSVKGRFTISRDNAKNTVYLQMNCLKPEDTAVYYCAAKPWVWVYARYGKHPSYDYWGQGTQVTVSS”, the “polyreactivity (PSR sort gate)” value was “high polyreactivity”.

As to “QVQRVETGGVLVQAGGSLRLSCAASGRIFINDMGWYRQAHGKEMELVAAIRSDGSTNYADSVKGRFTFSRDTAKNTVYLQMNSLKPEDTAVYYCNVDGYYLFVRGYEYWGQGTQVTVSS”, the “polyreactivity (PSR sort gate)” value was “low polyreactivity”.

Turning to “QVQVVESGGGIVQAGGSHRLSCAAYGSIFLPYAMGWYRQAPGKDRELVAAITRGGDSTYADSVKGRFTISRDNAMYTVDLQMNSLKRDDTAVFYCAAGAGFESDYWGQGTQVTVAS”, the “polyreactivity (PSR sort gate)” value is given as “low polyreactivity”.

Consider “QVQVVESGGGLVQAGGRLRLSCAASGRIFYWYAMGWSRQAPGKERELVADINHGDTSTYYADSVKGRFTISRDKAKNTVYLQMNSLKPEDTAVYYCNVRSYVYSRWYQSTWGYYYWGQGTQVTVSS”, for which the “polyreactivity (PSR sort gate)” value is recorded as “high polyreactivity”.

Regarding “QVQVVESGGGLVQAGGSLLLICAASGRTFWPNAMGWYRAAPGKERELVAAINWGGGSTYYADSVKVRFTISRDNAKNAVYLQKNSLKPEDTAVYYCAKSLVPWWYKVEYDYWGQGTQVTVSS”, the “polyreactivity (PSR sort gate)” value is recorded as “low polyreactivity”.

For “QVQVVESGGGLVQAGGSLLLSCAASGSTFEYNAMGWYRQAPGKERELVASSTNYADSVKGRFTISRDNAKNTVYLQMNSLKPEDTAVYYCARELGVNRKHDYWGQGTQVTVSS”, the “polyreactivity (PSR sort gate)” value is on record as “low polyreactivity”.

In the case of “QVQVVESGGGLVQAGGSLRLSCAASGFIFFTYAKGWYRPAPGKERELVADISSRGGSTYYADSVKGRFTISRDNAKNTVYLQMNSLKPEDTAVYYCARTRFWLRYRLFDYWGQGTQVTVSS”, the “polyreactivity (PSR sort gate)” value is reported as “low polyreactivity”.

Consider “QVQVVESGGGLVQAGGSLRLSCAASGFIFLRYDMGWYRQAPGKERELVAAINGNGGSTYYADSVKGRFTISRDNAKNTFYLQMNSLKPEDTAVYYCNARRRTYARNYGYWGHGTQVTVSS”, for which the “polyreactivity (PSR sort gate)” value is recorded as “high polyreactivity”.

Regarding “QVQVVESGGGLVQAGGSLRLSCAASGRIFSHNAMGWYRQAPGNEWELVAGISSGGGTTYADSVKGRFTLSRDNAKNTVYLQMNSLKPEDTAVYYCNKQDQPVGRSGYPYGYDYWGQGTQVTVSS”, the “polyreactivity (PSR sort gate)” value was “low polyreactivity”.

On to “QVQVVESGGGLVQAGGSLRLSCAASGRTFDWYLMGWYRQAPGKERELVASIRGTGSTYYADSVKGRFTISRDNAKNTVYLQMNSLKAEDTAVYYCAARPGFLYSKYNYWGQGTQVTVSS”, for which the “polyreactivity (PSR sort gate)” value was “high polyreactivity”.

For the sequence “QVQVVESGGGLVQAGGSLRLSCAASGRTYRSNAMGWYRQAPGKERELVAAIRTSGGSTYYADSVKGRFTISRDNAKNTVYLQMNSLKPEDTAVYYCNAELRDLEFDYWGQGTQVTVSS”, the “polyreactivity (PSR sort gate)” value was “low polyreactivity”.

On to “QVQVVESGGGLVQAGGSLRLSCAASGSICHVNAMGWYRQAPGKERELVADISKRGASTYYADSVKGRFTISRDNAKNTVYLQMNSLKPEDTAVYYCAARVVTPRRQWYTYDYWGQGTQVSVSS”, for which the “polyreactivity (PSR sort gate)” value is reported as “high polyreactivity”.

Consider “QVQVVESGGGLVQAGGSLRLSCAASGSIFATYAMGWYRQAPGKERELVAAITSSDGSTNYADSVKGRFTISRDNAKNTVYLQMNSLKPEDTAVYYCATDAPDRTDSDSGFDAGYDYWGQGTQVTLSS”, for which the “polyreactivity (PSR sort gate)” value was “low polyreactivity”.

“QVQVVESGGGLVQAGGSLRLSCAASGSISSWYALGWYRPAAGYERELVADISSGVNTYYADSVKGRFTISRDNAKNTVYLQMNSLKTEDTAVYYCNAESLTFADPFYNYTYDYWGQGTQVTVSS”: the “polyreactivity (PSR sort gate)” value is “low polyreactivity”.

On to “QVQVVESGGGLVQAGGSLRLSCAASGSTFKNYAMGWYRQAPGKERELVAAIHGRGGSTYYADSVKGRFTISRDNAKNTVYLQMNSLKPEDTAVYYCAASRVHSYNPGYPRYYYWGQGTQVNVSS”, for which the “polyreactivity (PSR sort gate)” value is “high polyreactivity”.

For “QVQVVESGGGLVQAGGSLRLSCAAYGRTISAYAMGWYRQAPVKERELVARITRYGGPTYYADSVKGRFTISRDYAKYTDYLQMNSLKAEVTAVDYCAARKYHLRTAYVYWGQGTEVTVSS”, the “polyreactivity (PSR sort gate)” value was “low polyreactivity”.

Regarding “QVQVVESGGGLVQAGGSLRLSCAGSGSIFRVYAMGWYRQAPGKVREWVASISRRGGSTYYADSVKGRFTISRDNAKNTVYLQMNSLKPEDTAVDYCAAEFVIGGHGYDYWGQGTQVTVSS”, the “polyreactivity (PSR sort gate)” value was “high polyreactivity”.

As to “QVQVVESGGGLVQAGGSLRLSCGASGSTFQGNAMGWYRPAPGKDRALDAAISRSGGSTYADSVKGRFTISRDNAKNTVYLQMNSLKPADTAVYYCAADALYWIGRMDYWGQGTQVTVSS”, the “polyreactivity (PSR sort gate)” value is “low polyreactivity”.

In the case of “QVQVVESGGGLVQAVGSLRLSCAASGSTLSDNAMGWYRQAPGKERELFAAISESGGSTYYADSVKGRFTISRDNAKNTVYLQMNSQKPEDTAVSYCNAVYLSGPFHVSHDYWGQGTQVTVSA”, the “polyreactivity (PSR sort gate)” value was “low polyreactivity”.

In the case of “QVQVVESGGGLVQEVGSLRLSCDASGRSFHHNVMGWYRQAPGKERELVAAISQSGCSTYYADSVKGRFTISRDNAKNTLYLLINSLKPEDSAVYYCNAGAAGRRYNYWGQGTQVTVSS”, the “polyreactivity (PSR sort gate)” value is recorded as “low polyreactivity”.

With “QVQVVESGGGLVQPGGSLRLSCAASGFIFFRYDMGWYRQAPGKERELVAAITDDGSTYADSVKGRFTISRDNAKNNVYLQMNSLKPEDTAVYYCNVQSKSSYWWYGYDYWGQGTQVTVSS”, the “polyreactivity (PSR sort gate)” value is “low polyreactivity”.

On to “QVRHVESGGGLVQAGGSLRLSCAASGGIFTTYAVGWYREAPGKEWELVARINSRGGRTYYADSVKGRFTISRDNAKYTVYLQMISLKPEDTGVYYCAVRNPRYFNEYDYWGQGTQVTVSS”, for which the “polyreactivity (PSR sort gate)” value is listed as “low polyreactivity”.

On to “QVRLIESGGGLVQAGGSLRLSCAASGFTFFGNAMGWYRQAPGKERELVASISGSGTRTYYADSVKGRFTISRDNAKNTVYLQMNSLKPEDTAVYYCAARGSYSHGINYYWGQGTQVTVSS”, for which the “polyreactivity (PSR sort gate)” value is “high polyreactivity”.

Consider “QVRLVESGGCLVQAGGSLRLSCAASGSTFRRYAMGWYRQAPGKERELVAAITVGGGSTYYADSVKGRFTISRDNAKNTVYLQMNSLKPEDTAVYDCSVSRYPYFRYDYWGQGTQVTVSS”, for which the “polyreactivity (PSR sort gate)” value is recorded as “high polyreactivity”.

On to “QVRLVESGGGLVQAGGSLRLSCAASGFIFRNNAMGWYRQAPGKERELVAVISFSGGSTYYADSVKGRFTISRDNAKNTVSLQMNSLKPEDTAVYYCTAKGWYYTRRSDYWGQGTQVTVSS”, for which the “polyreactivity (PSR sort gate)” value is “low polyreactivity”.

Regarding “QVRLVESGGGLVQAGGSLRLSCAASGRIFVGYGLGWYRQAHGKERELVAAITSSGGSTYYADSVKGRFTISRDNAKNTVYLQMNSLKPEDTAVYYCAAERGYHGGVSGLYDYWGQGTQVTVSS”, the “polyreactivity (PSR sort gate)” value is reported as “low polyreactivity”.

Turning to “QVRLVESGGGLVQAGGSLRLSCAASGRILQVYAMGWYRQAPGKERELVAGIRSSGGRTYYADSVKGRFTISRDNAKNTVSLQMNSLKPEDTAVYYCAADQDWYGFVIGFDYWGQGTQVTVSS”, the “polyreactivity (PSR sort gate)” value is reported as “low polyreactivity”.

Consider “QVRLVESGGGLVQAGGSLRLSCAASGSIFSPYAMGWYRQAPGKERELVAALSYGVGNTYYADSVKGRFTISRDNAKNTVYLQMNSLKPEDTAVYYCAAEEYDYVYPHYFTKGYYWGQGTQVTVSS”, for which the “polyreactivity (PSR sort gate)” value is “high polyreactivity”.

As to “QVRLVESGGGLVQAGGSLRLSCAAYGSTFKTYAMGWYRPAPGKERELVAAISAGGGSTYYADSVKGRFTISRDNAKNTVYLQMNSLKPEDTAVYYCAAAYIYAGWDYEYWGQGTQVTVSS”, the “polyreactivity (PSR sort gate)” value was “low polyreactivity”.
